According to US7994123B2, “Hybrid proteins with ErbB4 extracellular domain and neuregulin heparin-binding domain for targeting” (Wayne State University, priority 2004, dated 2011):

Tests used:
[1] = system: erbB receptor phosphorylation (p185) in L6 cells; assay: L6 assay: block of NRG-induced erbB receptor phosphorylation (p185); type: cell-based; details: preincubated with L6 muscle cells one hour, thoroughly washed before adding recombinant neuregulin
Method: 4. Cell culture: The L6 cells were cultured in DMEM supplemented with 10% fetal calf serum, 1 mM L-glutamine and 1000 U/ml penicillin/streptomycin at 37° C. in 10% CO2 incubator. The HEK293 cells were cultured in DMEM with 10% fetal calf serum, 1 mM L-glutamine, 2 mM sodium pyruvate, 0.1 mM non-essential amino acids, 1000 U/ml penicillin/streptomycin at 37° C. in 10% CO2 incubator. The selective antibiotics Geneticin 200 μg/ml (Gibco-Invitrogen) was added to the cell cultures of stably transfected HEK293 cells harboring the NRG antagonists. 5. Stable expression of NRG antagonists in HEK293 cells: HEK293 cells were cultured in […] flasks to 80% confluence and transfected with the four NRG antagonist constructs using lipofectamine 2000 (Invitrogen Life Science) as instructed. The antibiotic Geneticin was then added at a concentration of 400 μg/ml to the transfected HEK293 cells to select the positive antagonist transfected cells. After three weeks of Geneticin selection, the transfected HEK293 cells were diluted and plated in 96 well plates to yield single positive clones. The single clones that expressed the highest levels of antagonists (confirmed by western blot using HA antibody) were then maintained in culture media with 200 μg/ml Geneticin. Optimem I (Gibco-Invitrogen) was applied to the stably transfected NRG antagonist cell lines at 37° C. in 10% CO2 incubator for 2 days. The conditioned Optimem I media was then used in the following experiments. 6. Heparin column binding: The conditioned media containing the four NRG antagonists was passed through the heparin column to allow binding to heparin. The excessive unbound antagonist proteins were washed off by 1×PBS twice. The antagonist proteins were then eluted by increasing concentration of NaCl (0.25, 0.3, 0.4, 0.5, 0.6 and 1M). The flow through solution from each step was examined by anti-HA western blots, as described later, to determine heparin binding ability of the antagonists. 7. Purification and quantitation of recombinant proteins: The NRG antagonists were purified by anti-HA affinity matrix (3F10) (rat mAb) according to manufacturer's instructions. Briefly, the column was equilibrated with buffer containing 20 mM Tris pH 7.5, 0.1 M NaCl, 0.1 M EDTA, and each antagonist in conditioned medium was applied individually to the anti-HA affinity matrix. Excess unbound antagonist proteins were washed with 20 volume of washing buffer (20 mM Tris pH 7.5, 0.1 M NaCl, 0.1 M EDTA and 0.05% Tween 20). The bound NRG antagonists were eluted with 0.1 M glycine (pH 2). The purified recombinant protein was then quantified using a BioRad Protein Assay kit (Bio-Rad, Hercules, Calif.) 8. Silver stain: Both the conditioned media and the purified NRG antagonists were resolved on 7.5% reducing SDS-polyacrylamide gels. The gel was fixed with 30% ethanol and 10% acetic acid for 30 min. 10% ethanol and ultrapure water were used subsequently to wash the gel before staining with SilverSNAP stain solution with enhancer for 30 min. The gel was then developed using SilverSNAP developer solution with enhancer. 5% acetic acid was used to stop the reaction when the desired band intensity was reached. The gel was dried on filter paper using a vacuum gel dyer. 9. […] Positive control L6 cells were treated with 50 pM NRG alone. L6 cell lysates were prepared and run on 5% SDS-PAGE gel. Western blots of erbB receptor phosphorylation were performed using 4G10 antibody. 10. Western blot: Western blots were performed on both conditioned NRG antagonist media and the antagonist-treated L6 cells. The antagonist proteins and the L6 cells were solubilized in SDS sample buffer and boiled for 5 min as described above (see also Li et al., supra). The NRG antagonists run on 7.5% SDS-PAGE gel were detected by anti-HA mAb HA.11. Phosphotyrosine mAb 4G10 was used to detect phosphorylated erbB receptor (p185) in L6 cell western blot analysis following resolution on overrun 5% reducing SDS-polyacrylamide gels. […]

[2] = system: malignant masses (carcinomas, sarcomas, gliomas and medulloblastomas); assay: Anti-tumor effects in human patients; type: in vivo
Description: All patients to be treated have histologically confirmed malignant masses confirmed by biopsy or cytology are entered. Malignant diseases including carcinomas, sarcomas, gliomas and medulloblastomas. […] Patients in all stages of malignant disease involving any organ system are included. Staging describes both tumor and host, including organ of origin of the tumor, histologic type, histologic grade, extent of tumor size, site of metastases and functional status of the patient. For a general classification includes the known ranges of Stage 1 (localized disease) to Stage 4 (widespread metastases), see Abraham J et al., Bethesda Handbook of Clinical Oncology, Lippincott, Williams & Wilkins, Philadelphia, Pa., 2001 (or a more recent edition). Patient history is obtained and physical examination performed along with conventional tests of cardiovascular and pulmonary function and appropriate radiologic procedures. The malignant masses are visible on x-ray or CT scan and/or are measurable with calipers. They have not been undergoing any other anticancer treatment for at least one month and have a clinical KPS of at least 50.
HBD-S-B4 is administered intravenously in doses of 0.01-100 μg/kg intratumorally once every 2-7 days. Patient Evaluation: Assessment of response of the tumor to the therapy is made once per week during therapy and 30 days thereafter using CT or x-ray visualization. Depending on the response to treatment, side effects, and the health status of the patient, treatment is terminated or prolonged from the standard protocol given above. Tumor response criteria are those established by the WHO and RECIST (Response Evaluation Criteria in Solid Tumors) summarized below (e.g., Abraham et al., supra)
The efficacy of the therapy in a patient population is evaluated using conventional statistical methods, including, for example, the Chi Square test or Fisher's exact test. Long-term and short term changes in measurements are evaluated separately.

B1: B4: purified His-tagged erbB4 extracellular domain lacking the HBD (protein)
chain: VCAGTENKLSSLSDLEQQYRALRKYYENCEVVMGNLEITSIEHNRDLSFLRSVREVTGYVLVALNQFRYLPLENLRIIRGTKLYEDRYALAIFLNYRKDGNFGLQELGLKNLTEILNGGVYVDQNKFLCYADTIHWQDIVRNPWPSNLTLVSTNGSSGCGRCHKSCTGRCWGPTENHCQTLTRTVCAEQCDGRCYGPYVSDCCHRECAGGCSGPKDTDCFACMNFNDSGACVTQCPQTFVYNPTTFQLEHNFNAKYTYGAFCVKKCPHNFVVDSSSCVRACPSSKMEVEENGIKMCKPCTDICPKACDGIGTGSLMSAQTVDSSNIDKFINCTKINGNLIFLVTGIHGDPYNAIEAIDPEKLNVFRTVREITGFLNIQSWPPNMTDFSVFSNLVTIGGRVLYSGLSLLILKQQGITSLQFQSLKEISAGNIYITDNSNLCYYHTINWTTLFSTINQRIVIRDNRKAENCTAEGMVCNHLCSSDGCWGPGPDQCLSCRRFSRGRICIESCNLYDGEFREFENGSICVECDPQCEKMEDGLLTCHGPGPDNCTKCSHFKDGPNCVEKCPDGLQGANSFIFKYADPDRECHPCHPNCTQGCNGPTSHDCIYYPWTGHSTLPQHAKN
modifications: left off: small tags and cut ends
notes: purified His-tagged erbB4 extracellular domain lacking the HBD
sustained blockade of neuregulin signaling (p185 phosphorylation) [1]: no sustained effects

B2: HBD-S-B4: prototypical fusion protein of NRG HBD, spacer and erbB4 ECD (SEQ ID NO:14) (protein)
chain: QKMKPATGLWVWVSLLVAAGTVQPSDSQSGYKKKERGSGKKPESAAGSQSPALPPRLKEMKSQESAAGSKLVLRCETSSEYSSLRFKWFKNGNELNRKNKPQNIKIQKKPGKSELRINKASLADSGEYMCKVISKLGNDSASANITIVESNEIITGMPASTEGAYVSSESPIRISVSTEGANTSSSTSTSTTGTSGTQSVCAGTENKLSSLSDLEQQYRALRKYYENCEVVMGNLEITSIEHNRDLSFLRSVREVTGYVLVALNQFRYLPLENLRIIRGTKLYEDRYALAIFLNYRKDGNFGLQELGLKNLTEILNGGVYVDQNKFLCYADTIHWQDIVRNPWPSNLTLVSTNGSSGCGRCHKSCTGRCWGPTENHCQTLTRTVCAEQCDGRCYGPYVSDCCHRECAGGCSGPKDTDCFACMNFNDSGACVTQCPQTFVYNPTTFQLEHNFNAKYTYGAFCVKKCPHNFVVDSSSCVRACPSSKMEVEENGIKMCKPCTDICPKACDGIGTGSLMSAQTVDSSNIDKFINCTKINGNLIFLVTGIHGDPYNAIEAIDPEKLNVFRTVREITGFLNIQSWPPNMTDFSVFSNLVTIGGRVLYSGLSLLILKQQGITSLQFQSLKEISAGNIYITDNSNLCYYHTINWTTLFSTINQRIVIRDNRKAENCTAEGMVCNHLCSSDGCWGPGPDQCLSCRRFSRGRICIESCNLYDGEFREFENGSICVECDPQCEKMEDGLLTCHGPGPDNCTKCSHFKDGPNCVEKCPDGLQGANSFIFKYADPDRECHPCHPNCTQGCNGPTSHDCIYYPWTGHSTLPQHAKN
% of Patients Responding, <PR ([2]; All Patients): 5.3% | % of Patients Responding, CR ([2]; All Patients): 59.7% | % of Patients Responding, PR ([2]; All Patients): 11.3% | No. of patients, Response <PR ([2]; All Patients (400 treated)): 21 | No. of patients, Response CR ([2]; All Patients (400 treated)): 239 | No. of patients, Response PR ([2]; All Patients (400 treated)): 45 | % of Patients Responding, CR + PR + <PR ([2]; Brain glioma/astrocytoma): 61% | % of Patients Responding, CR + PR + <PR ([2]; Breast adenocarcinoma): 85% | % of Patients Responding, CR + PR + <PR ([2]; Gastrointestinal carcinoma): 77% | % of Patients Responding, CR + PR + <PR ([2]; Ovarian carcinoma): 82% | overall response rate ([2]; all tumors): about 76% | patients with objective clinical responses ([2]; all tumors): Three hundred and five | CBC, renal and liver functions tests after treatments ([2]; human, in vivo): do not change significantly | average duration of responses ([2]; human, in vivo): 24 months | incidence of side effects: bloody nose ([2]; human, in vivo): 1 % of total treatments | incidence of side effects: blurred vision ([2]; human, in vivo): < 1 % of total treatments | incidence of side effects: chills ([2]; human, in vivo): 10 % of total treatments | incidence of side effects: cramps ([2]; human, in vivo): < 1 % of total treatments | incidence of side effects: diarrhea ([2]; human, in vivo): 1 % of total treatments | incidence of side effects: dizziness ([2]; human, in vivo): < 1 % of total treatments | incidence of side effects: fatigue ([2]; human, in vivo): < 1 % of total treatments | incidence of side effects: feeling faint ([2]; human, in vivo): < 1 % of total treatments | incidence of side effects: fever ([2]; human, in vivo): 10 % of total treatments | incidence of side effects: flushing ([2]; human, in vivo): 1 % of total treatments | incidence of side effects: gastritis ([2]; human, in vivo): < 1 % of total treatments | incidence of side effects: headache ([2]; human, in vivo): 3 % of total treatments | incidence of side effects: hypertension ([2]; human, in vivo): 2 % of total treatments | incidence of side effects: hypotension ([2]; human, in vivo): 2 % of total treatments | incidence of side effects: itching/hives ([2]; human, in vivo): 1 % of total treatments | incidence of side effects: joint pain ([2]; human, in vivo): 2 % of total treatments | incidence of side effects: nausea ([2]; human, in vivo): 5 % of total treatments | incidence of side effects: pain ([2]; human, in vivo): 5 % of total treatments | incidence of side effects: rash ([2]; human, in vivo): 2 % of total treatments | incidence of side effects: redness on hand ([2]; human, in vivo): < 1 % of total treatments | incidence of side effects: respiratory ([2]; human, in vivo): 3 % of total treatments | incidence of side effects: tachycardia ([2]; human, in vivo): 2 % of total treatments | incidence of side effects: twitching ([2]; human, in vivo): < 1 % of total treatments | incidence of side effects: vomiting ([2]; human, in vivo): 2 % of total treatments | time at which objective remissions are evident ([2]; human, in vivo): after four weeks of therapy | toxicity ([2]; human, in vivo): mild short-lived fever, fatigue and anorexia not requiring treatment | positive tumor responses ([2]; patients with breast, ovarian and gastrointestinal tumors): 77-85%
